Laboratory results published in patent publication US20090324573A1, “Pharmaceutical Composition Comprising P43 Protein for the Treatment of Gastric Adenocarcinoma” (priority 2006, published 2009).

What was measured:
Assay type in all cases: in vivo, BALB/cA bare mouse
Parameters in all cases: TV d 0 / TV d 21: unit not given here
Settings in all cases: for RTV: RTV=Vt/V0; for T/C (%): TRTV/CRTV×100; for Weight (g) Final: final body weight; for Weight (g) First: first (baseline) body weight; for TV d 0: d 0, day of first administration
[1] = tested on: human colon carcinoma HCT-116; assay: Transplanted tumor of human colon carcinoma HCT-116 in bare mouse
Source text: (§1) Animal Resource, Line and Strain: BALB/cA bare mouse, provided by Experimental Animal Center, Chinese Academy of Sciences, Shanghai, China.
(§2) Number of animal in each group: 10 mice for negative control group and 5 mice for treating group
Transplanted tumor of human colon carcinoma HCT-116 in bare mouse was established by inoculating human colon carcinoma HCT-116 cell strain into hypoderm of bare mouse, with a inoculation concentration of 1-3×10^6. After establishing the transplanted tumor, it was passaged in bare mouse for three generations prior to use.
(§3) The eugonic tumor tissue was cut into about 1.5 mm^3. It was inoculated into hypodermis in right armpit of bare mouse under aseptic condition. The diameter of the transplanted tumor of the bare mouse was measured by vernier caliper. After the tumor grew to 100-300 mm^3, the mice were grouped randomly. The effect of reagents used for inhibiting tumor was observed dynamically through the method of measuring the diameter of tumor. The diameter of tumor was measured 3 times per week, while measuring the weight of mice. With respect to the mice in an administration group, the mice were administrated by intravenous injection 6 times per week, with respect to the mice in a positive control group, the mice were administrated by intravenous injection 2 times per week; with respect to the mice in a negative control group, the mice were administrated by same amount of physiological saline at the same time.
(§4) The tumor volume (TV) was calculated as follows:
(§5) in which a and b represent length and width, respectively. The relative tumor volume (RTV) was calculated depending on the measured results: RTV=Vt/V0, in which V0 represents the tumor volume measured at the first administration (d0), and Vt represents the tumor volume measured at each measurement. The factor for estimating the effect against tumor is the relative tumor growth T/C (%) as follows:
(§6) TRTV: RTV for treating group; CRTV: RTV for negative control group.
100 mg of p43 protein, available from Sine Laboratory in Shanghai, China, was dissolved in physiological saline to form a solution of 1 mg/ml.
(§7) The solution was administrated to bare mouse by intravenous injection in 2.5 mg p43 protein/kg weight, 5 mg p43 protein/kg weight, and 10 mg p43 protein/kg weight.

[2] = tested on: human nasopharyngeal carcinoma CNE-1; assay: Transplanted tumor of human nasopharyngeal carcinoma CNE-1 in bare mouse
Source text: as §1, §2
Transplanted tumor of human nasopharyngeal carcinoma CNE-1 in bare mouse was established by inoculating human nasopharyngeal carcinoma CNE-1 cell strain into hypoderm of bare mouse, with a inoculation concentration of 1-3×10^6. After establishing the transplanted tumor, it was passaged in bare mouse for three generations prior to use.
as §3, with “reagents used fro inhibiting tumor” for “reagents used for inhibiting tumor”, “times per week; with respect” for “times per week, with respect”
as §4, §5, §6
100 mg of p43 protein, available from Sine Laboratory in Shanghai, China, was dissolved in physiological saline to form a solution of 1 mg/ml. […]

[3] = tested on: human gastric adenocarcinoma SGC-7901; assay: Transplanted tumor of human gastric adenocarcinoma SGC-7901 in bare mouse
Source text: as §1
Bare mouse transplanted with human gastric adenocarcinoma […] was established by subcutaneously inoculating human gastric adenocarcinoma SGC-7901 cell strain into bare mouse, with a inoculation concentration of 1-3×10^6. After establishing the transplanted tumor, it was passaged in bare mouse for three generations prior to use.
as §3, with “dynamically through measuring the” for “dynamically through the method of measuring the”, “times per week: with respect” for “times per week, with respect”
as §4
in which a and b represent length and width, respectively. The relative tumor volume (RTV) was calculated based on the measured results: RTV=Vt/V0, in which V0 represents the tumor volume measured at the first administration (d0), and Vt represents the tumor volume measured at each measurement. The factor for estimating the effect against tumor is the relative tumor proliferation T/C (%) as follows:
as §6
100 mg of p43 protein, obtained from Sine Laboratory in Shanghai, China, was dissolved in physiological saline to form a solution of 1 mg/ml.
as §7

[4] = 2.5 mg/kg intravenous injection 6 times per week
[5] = 2.5 mg/kg intravenous injection
[6] = 5 mg/kg intravenous injection 6 times per week
[7] = 10 mg/kg intravenous injection 6 times per week

B1: P43: accessory factor of tRNA synthetase of mammals; single-chain protein of 312 amino acids; obtained from Sine Laboratory, Shanghai (protein, UniProt Q12904 2-312, looked up)
Aminoacyl tRNA synthase …: ANNDAVLKRLEQKGAEADQIIEYLKQQVSLLKEKAILQATLREEKKLRVENAKLKKEIEELKQELIQAEIQNGVKQIPFPSGTPLHANSMVSENVIQSTAVTTVSSGTKEQIKGGTGDEKKAKEKIEKKGEKKEKKQQSIAGSADSKPIDVSRLDLRIGCIITARKHPDADSLYVEEVDVGEIAPRTVVSGLVNHVPLEQMQNRMVILLCNLKPAKMRGVLSQAMVMCASSPEKIEILAPPNGSVPGDRITFDAFPGEPDKELNPKKKIWEQIQPDLHTNDECVATYKGVPFEVKGKGVCRAQTMSNSGIK
- RTV [1, 4]: 5.01 ± 0.92
- T/C (%) [1, 4]: 84.5%
- TV d 21 [1, 4]: 822 ± 145
- Weight (g) Final [1, 4]: 24.1 ± 1.5 g
- Weight (g) First [1, 4]: 20.7 g
- TV d 0 [1, 5]: 164 ± 48
- RTV [1, 6]: 4.51 ± 0.75
- T/C (%) [1, 6]: 76.0%
- TV d 21 [1, 6]: 703 ± 189
- Weight (g) Final [1, 6]: 23.9 ± 2.2 g
- Weight (g) First [1, 6]: 21.3 g
- TV d 0 ([1]; 5 mg/kg intravenous injection): 156 ± 39
- RTV [1, 7]: 4.73 ± 1.01
- T/C (%) [1, 7]: 79.7%
- T/C (%) ([1]; 10 mg/kg intravenous injection 6 times per week, listed as p43): 79.79%
- TV d 21 [1, 7]: 761 ± 211
- Weight (g) Final [1, 7]: 23.5 ± 2.1 g
- Weight (g) First [1, 7]: 20.9 g
- TV d 0 ([1]; 10 mg/kg intravenous injection): 161 ± 52
- side effect ([1]; HCT-116 bearing bare mouse, 2.5, 5 and 10 mg/kg intravenous injection): without any obvious side effect
- inhibition on growth of transplanted tumor ([1]; HCT-116 in bare mouse, 2.5, 5 and 10 mg/kg intravenous injection): non-significant inhibition
- RTV [2, 4]: 13.43 ± 5.64
- T/C (%) [2, 4]: 88.9%
- TV d 21 [2, 4]: 1921 ± 201
- Weight (g) Final [2, 4]: 24.6 ± 2.4 g
- Weight (g) First [2, 4]: 20.5 ± 1.3 g
- TV d 0 [2, 5]: 143 ± 70
- RTV [2, 6]: 12.75 ± 5.12
- T/C (%) [2, 6]: 84.4%
- TV d 21 [2, 6]: 1708 ± 154
- Weight (g) Final [2, 6]: 23.1 ± 1.8 g
- Weight (g) First [2, 6]: 19.6 ± 0.8 g
- TV d 0 ([2]; 5 mg/kg intravenous injection): 134 ± 48
- RTV [2, 7]: 12.63 ± 4.88
- T/C (%) [2, 7]: 83.6%
- TV d 21 [2, 7]: 1856 ± 173
- Weight (g) Final [2, 7]: 22.9 ± 2.3 g
- Weight (g) First [2, 7]: 19.8 ± 1.1 g
- TV d 0 ([2]; 10 mg/kg intravenous injection): 147 ± 63
- side effect ([2]; CNE-1 bearing bare mouse, 2.5, 5 and 10 mg/kg intravenous injection): without any obvious side effect
- inhibition on growth of transplanted tumor ([2]; CNE-1 in bare mouse, 2.5, 5 and 10 mg/kg intravenous injection): non-significant inhibition
- RTV [3, 4]: 17.14 ± 7.25
- T/C (%) [3, 4]: 81.7%
- TV d 21 [3, 4]: 2400 ± 360
- Weight (g) Final [3, 4]: 26.7 ± 1.7 g
- Weight (g) First [3, 4]: 20.3 ± 0.9 g
- TV d 0 [3, 5]: 140 ± 73
- RTV [3, 6]: 11.37 ± 6.3
- T/C (%) [3, 6]: 54.2%
- TV d 21 [3, 6]: 1648 ± 102
- Weight (g) Final [3, 6]: 25.1 ± 1.9 g
- Weight (g) First [3, 6]: 20.5 ± 0.7 g
- TV d 0 ([3]; 5 mg/kg intravenous injection): 146 ± 72
- RTV [3, 7]: 12.99 ± 5.14
- T/C (%) [3, 7]: 61.9%
- TV d 21 [3, 7]: 1715 ± 168
- Weight (g) Final [3, 7]: 25.4 ± 2.8 g
- Weight (g) First [3, 7]: 20.7 ± 0.6 g
- TV d 0 ([3]; 10 mg/kg intravenous injection): 132 ± 34
- side effect ([3]; SGC-7901 bearing bare mouse, 2.5, 5 and 10 mg/kg intravenous injection): without any obvious side effect
- inhibition on growth of transplanted tumor ([3]; SGC-7901 in bare mouse, 2.5, 5 and 10 mg/kg intravenous injection): significant inhibition
